Reference: article doi:10.1101/2021.11.20.466133 (bioRxiv, 2021)

Biological target: the molecule itself
Assay: SEC-MALS

B1: Mycobacterium smegmatis c-di-AMP hydrolase (phosphodiesterase) MsPDE (enzyme)
chain: MPVTTTDPKTGLLTGPDAQIAGARVDARGAADLLTAASSVSVICHVYPDADTIGAGLALAQVLAASGKHVEVSFATPAQLPESLQSLPGGHLLVAPEAMRRDADLVVTVDIPSINRLGALSGLAGPGREVLVIDHHASNQLFGTANYIDPSADSTTMLVAELLDAWGKPIDEKVAHCLYAGLTTDTGSFRWATARAHRLAARLVELGVDNASISRTLLDTHPFAWLPMLSRVLATARLLPDALDGRGFVYAVVPHDEWSEARPEEVESIVDIVRTTQQAEVAAVFKEIEPMHWSVSMRAKSVNLASVASAFGGGGHPHAAGYSATGSADDVVQALARALG
stoichiometry N: 2
